This assay concerns the target T1, Fc-mUmod, fusion protein of the mouse Umod protein (positions 1-616 of SEQ ID NO: 8) and the Fc domain of … (mouse; human, UniProt Q91X17 25-616).
T1 construct: Secreted from HEK293T cells, purified on protein A and immobilized on a 96-well plate; Positions 1-616 are the cloned range and start at the initiator Met; also called uromodulin; not shown: Fc domain of human IgG1
The assay is described as follows: whole bacterial cells on plate-immobilized Fc-mUmod; bound cells counted by 16S rRNA real-time PCR, hIgG background subtracted. How it is done: Next, the Fc-mUmod protein and hIgG as a control Fc protein were respectively diluted with PBS so as to result in a concentration of 5 μg/ml, and the resultants were applied to a 96-well plate (50 μl per well) and immobilized at 4° C. overnight. Each well was washed three times with 200 μl of PBS. Then, a 1% BSA/PBS solution (200 μl) was applied thereto for blocking at room temperature for 2 hours. Then, the blocking solution was removed. Thereafter, bacterial cells of each test lactic acid bacterium, which had been suspended in PBS so as to result in a concentration of 10⁶ cells/50 μl, were applied thereto (50 μl per well) and incubated at room temperature for 2 hours. Each well was washed five times with 200 μl of PBS and then PBS was completely removed.
DNA was extracted from bacterial cells bound to each plate using NucleoSpin™ Tissue (Takara) in accordance with the provided protocol. Real-time PCR was performed using the extracted DNA as a template and universal primers targeting the 16S rRNA gene (F: 5′-[…]-3′ (SEQ ID NO: 12), R: 5′-[…]-3′ (SEQ ID NO: 13)). The number of bacterial cells bound to Fc-mUmod and the number of bacterial cells bound to hIgG were quantitatively determined in accordance with the protocol provided with SYBR™ Premix Ex Taq™ II (Tli RNaseH Plus) (Takara).
A general note: Quantitative PCR measures a nucleic acid by following its amplification.

T1 sequence (Q91X17 25-616): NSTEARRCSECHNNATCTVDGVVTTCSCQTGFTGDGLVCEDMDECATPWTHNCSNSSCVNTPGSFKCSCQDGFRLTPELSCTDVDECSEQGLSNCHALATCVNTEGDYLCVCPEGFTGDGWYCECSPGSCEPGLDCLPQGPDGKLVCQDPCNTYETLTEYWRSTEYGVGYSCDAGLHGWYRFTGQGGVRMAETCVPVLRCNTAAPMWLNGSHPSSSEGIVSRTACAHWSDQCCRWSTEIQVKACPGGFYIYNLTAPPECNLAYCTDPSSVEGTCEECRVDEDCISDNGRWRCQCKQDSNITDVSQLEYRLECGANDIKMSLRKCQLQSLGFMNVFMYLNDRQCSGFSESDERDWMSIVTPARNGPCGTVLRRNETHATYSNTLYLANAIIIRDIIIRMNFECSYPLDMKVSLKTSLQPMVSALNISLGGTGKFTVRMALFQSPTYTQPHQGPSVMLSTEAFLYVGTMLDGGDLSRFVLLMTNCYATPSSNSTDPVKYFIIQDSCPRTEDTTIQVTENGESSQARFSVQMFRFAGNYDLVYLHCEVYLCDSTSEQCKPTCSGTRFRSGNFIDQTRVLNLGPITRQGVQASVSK

B1: S-layer protein A (SlpA protein) of the Lactobacillus acidophilus strain L-92 (other)
chain: AVSTVSAATTINASSSAINTNTNAKYDVDVTPSVSAVAANTANNTPAIAGNLTGTISASYNGKTYTANLKADTENATITAAGSTTAVKPAELAAGVAYTVTVNDVSFNFGSENAGKTVTLGSANSNVKFTGTNSDNQTETNVSTLKVKLDQNGVASLTNVSIANVYAINTTDNSNVNFYDVTSGATVTNGAVSVNADNQGQVNVANVVAAINSKYFAAQYADKKLNTRTANTEDAIKAALKDQKIDVNSVGYFKAPHTFTVNVKATSNTNGKSATLPVVVTVPNVAEPTVASVSKRIMHNAYYYDKDAKRVGTDSVKRYNSVSVLPNTTTINGKTYYQVVENGKAVDKYINAANIDGTKRTLKHNAYVYASSKKRANKVVLKKGEVVTTYGASYTFKNGQKYYKIGDNTDKTYVKVANFR
notes: In the assays SlpA stood on the surface of whole L-92 bacterial cells, not as an isolated protein; also called surface layer protein (SlpA)
On to B1, for which the binding result is given as “binds”.

(Values after patent US20170202908A1 (ASAHI GROUP, published 2017).)
